Molecular target: recombinant human tau 2N4R (as used in SPR) (human, UniProt P10636-8 1-441)
Assay: SPR

Kd: 41 ± 9 nM
B1: Recombinant human SORL1 aa 82-753 protein (domain or fragment, UniProt Q92673 82-753, looked up)
chain: SAALQPEPIKVYGQVSLNDSHNQMVVHWAGEKSNVIVALARDSLALARPKSSDVYVSYDYGKSFKKISDKLNFGLGNRSEAVIAQFYHSPADNKRYIFADAYAQYLWITFDFCNTLQGFSIPFRAADLLLHSKASNLLLGFDRSHPNKQLWKSDDFGQTWIMIQEHVKSFSWGIDPYDKPNTIYIERHEPSGYSTVFRSTDFFQSRENQEVILEEVRDFQLRDKYMFATKVVHLLGSEQQSSVQLWVSFGRKPMRAAQFVTRHPINEYYIADASEDQVFVCVSHSNNRTNLYISEAEGLKFSLSLENVLYYSPGGAGSDTLVRYFANEPFADFHRVEGLQGVYIATLINGSMNEENMRSVITFDKGGTWEFLQAPAFTGYGEKINCELSQGCSLHLAQRLSQLLNLQLRRMPILSKESAPGLIIATGSVGKNLASKTNVYISSSAGARWREALPGPHYYTWGDHGGIITAIAQGMETNELKYSTNEGETWKTFIFSEKPVFVYGLLTEPGEKSTVFTIFGSNKENVHSWLILQVNATDALGVPCTENDYKLWSPSDERGNECLLGHKTVFKRRTPHATCFNGEDFDRPVVVSNCSCTREDYECDFGFKMSEDLSLEVCVPDPEFSGKSYSPPVPCPVGSTYRRTRGYRKISGDTCSGGDVEARLEGELVPCP

Reference: paper doi:10.1101/2020.11.17.386581 (bioRxiv, 2020)
